Measured values taken from US6869778.

Legend:
lys-plasminogen, P00747 = target: T1, lys-plasminogen, P00747
T1 chain: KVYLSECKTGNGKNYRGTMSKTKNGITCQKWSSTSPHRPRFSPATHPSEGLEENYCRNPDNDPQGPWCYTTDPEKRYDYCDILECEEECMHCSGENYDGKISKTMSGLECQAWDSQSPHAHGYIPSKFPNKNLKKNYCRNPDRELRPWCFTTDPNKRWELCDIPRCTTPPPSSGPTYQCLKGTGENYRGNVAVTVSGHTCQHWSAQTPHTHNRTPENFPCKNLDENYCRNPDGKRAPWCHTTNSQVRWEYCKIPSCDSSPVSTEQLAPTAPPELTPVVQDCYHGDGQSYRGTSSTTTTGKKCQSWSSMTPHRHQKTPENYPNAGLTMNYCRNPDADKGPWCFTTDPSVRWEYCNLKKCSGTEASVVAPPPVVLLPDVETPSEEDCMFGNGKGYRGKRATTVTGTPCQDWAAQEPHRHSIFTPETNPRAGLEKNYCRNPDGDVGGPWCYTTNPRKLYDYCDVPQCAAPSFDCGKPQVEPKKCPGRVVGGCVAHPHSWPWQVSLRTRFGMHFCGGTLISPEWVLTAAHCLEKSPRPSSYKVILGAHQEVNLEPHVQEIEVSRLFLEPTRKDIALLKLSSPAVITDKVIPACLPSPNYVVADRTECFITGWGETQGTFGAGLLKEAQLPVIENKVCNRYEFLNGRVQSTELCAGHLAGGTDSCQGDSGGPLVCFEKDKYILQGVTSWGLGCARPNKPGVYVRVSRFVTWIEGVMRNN

[1] = target: soluble fibrin monomers (DESAFIB)
[2] = target: stimulatory thirteen amino acid peptide P368

B1: t-PA/R275E,K429Y, single-chain form (protein)
chain: SYQVICRDEKTQMIYQQHQSWLRPVLRSNRVEYCWCNSGRAQCHSVPVKSCSEPRCFNGGTCQQALYFSDFVCQCPEGFAGKCCEIDTRATCYEDQGISYRGTWSTAESGAECTNWNSSALAQKPYSGRRPDAIRLGLGNHNYCRNPDRDSKPWCYVFKAGKYSSEFCSTPACSEGNSDCYFGNGSAYRGTHSLTESGASCLPWNSMILIGKVYTAQNPSAQALGLGKHNYCRNPDGDAKPWCHVLKNRRLTWEYCDVPSCSTCGLRQYSQPQFEIKGGLFADIASHPWQAAIFAKHRRSPGERFLCGGILISSCWILSAAHCFQERFPPHHLTVILGRTYRVVPGEEEQKFEVEKYIVHKEFDDDTYDNDIALLQLKSDSSRCAQESSVVRTVCLPPADLQLPDWTECELSGYGKHEALSPFYSERLYEAHVRLYPSSRCTSQHLLNRTVTDNMLCAGDTRSGGPQANLHDACQGDSGGPLVCLNDGRMTLVGIISWGLGCGQKDVPGVYTKVTNYLDWIRDNMRP
Kcat of plasminogen activation in the absence of a cofactor (lys-plasminogen, P00747): 0.00046 s⁻¹ | Kcat of plasminogen activation in the presence of fibrin (lys-plasminogen, P00747): 0.1 s⁻¹ | Kcat/Km of plasminogen activation in the absence of a cofactor (lys-plasminogen, P00747): 78 M⁻¹ s⁻¹ | Kcat/Km of plasminogen activation in the presence of fibrin (lys-plasminogen, P00747): 2e+06 M⁻¹ s⁻¹ | Km of plasminogen activation in the absence of a cofactor (lys-plasminogen, P00747): 5.9 µM | Km of plasminogen activation in the presence of fibrin (lys-plasminogen, P00747): 0.07 µM | fold reduction of activity toward plasminogen without co-factor, against single chain t-PA/R275E (lys-plasminogen, P00747): reduced by a factor of 17 | percent of the activity of single chain t-PA/R275E toward plasminogen in the presence of fibrin (lys-plasminogen, P00747): approximately 40% of the activity of single chain t-PA/R275E | Fold stimulation of kcat/Km by fibrin [1]: 26000 fold | fibrin selectivity factor (specific activity in the presence of fibrin over that in the presence of fibrinogen) [1]: The fibrin selectivity factor for single chain t-PA/R275E,K429Y, however, is 146 | stimulation of plasminogen activation by co-factor (indirect chromogenic assay) [1]: dramatically stimulated by fibrin monomers | stimulation of plasminogen activation by co-factor (indirect chromogenic assay) (fibrinogen): virtually nonresponsive | stimulation of plasminogen activation by co-factor (indirect chromogenic assay) [2]: virtually nonresponsive
